From patent US20170190786A1

Assays:
[1] = molecular target: human ErbB2 on BT474 human breast tumor cells (human) (UniProt P04626); assay: cell-based or functional assay
[2] = molecular target: human ErbB2 on BT474 human breast tumor cells (human) (UniProt P04626); assay: Scatchard analysis, 125I-labelled antibody on BT474 cell monolayers, 4 hours on ice

Row | % apoptosis of the BT474 cell population [1] | proportion of S-phase cells (BT474) [1] | Kd [2] | Substance
1 | 60.5% | 64.9% | – | anti-ErbB2 IgG1κ murine monoclonal antibody 7C2
2 | 41.9% | 5.4% | 6.5 nM | anti-ErbB2 IgG1κ murine monoclonal antibody 4D5
